Literature values in article PMC9428257.
Values joined by “and” are separate entries in the source; they are usually repeats but may differ in a detail not shown here. Identical values can stand only once. Like-named read-outs stand apart in the source and are kept apart here.

Legend:
[1] = target: APRIL (Homo sapiens) (UniProt O75888)
[2] = target: APRIL (Homo sapiens) (UniProt O75888); remark: listed apart in the source
[3] = target: BAFF (Homo sapiens) (UniProt Q9Y275)

Chain of APRIL (Homo sapiens) (O75888 105-250): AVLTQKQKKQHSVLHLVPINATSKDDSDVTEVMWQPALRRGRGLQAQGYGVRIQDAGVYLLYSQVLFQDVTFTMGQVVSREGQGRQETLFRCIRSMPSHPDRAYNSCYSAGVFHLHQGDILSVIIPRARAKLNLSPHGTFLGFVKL
Chain of sBCMA ECD (Q02223 78-184): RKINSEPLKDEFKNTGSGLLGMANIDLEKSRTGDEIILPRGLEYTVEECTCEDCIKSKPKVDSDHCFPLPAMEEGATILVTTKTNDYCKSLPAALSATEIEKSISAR
Chain of sTACI-Fc ECD (O14836 1-165): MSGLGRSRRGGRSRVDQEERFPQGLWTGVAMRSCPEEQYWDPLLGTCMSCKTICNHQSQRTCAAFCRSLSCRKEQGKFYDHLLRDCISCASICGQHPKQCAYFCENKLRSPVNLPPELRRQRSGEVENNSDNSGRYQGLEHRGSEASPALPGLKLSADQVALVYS

Row | Kd [1] | Kd [2] | Kd [3] | Substance
1 | 0.025 nM and 0.048 nM | – | – | sBCMA ECD (from UniProt Q02223)
2 | – | 6.4 nM | 0.16 nM | sTACI-Fc ECD (from UniProt O14836)
